Key:
[1] = tested on: T1, Cbz-Ala-Ala-AAsn-(2R, 3R)-EP-COOEt
T1 sequence: AAN

[2] = tested on: T2, Cbz-Ala-Ala-AAsn-(2S, 3S)-EP-COOEt
T2 sequence: AAN

[3] = tested on: T3, Cbz-Ala-Ala-AAsn-cis-EP-COOEt
T3 sequence: AAN

[4] = tested on: T4, Cbz-Ala-Ala-AAsn-trans-EP-COOEt
T4 sequence: AAN

[5] = tested on: T5, Cbz-Asp-Glu-Val-AAsp-(2R, 3R)-EP-COOEt
T5 sequence: DEVD

[6] = tested on: T6, Cbz-Asp-Glu-Val-AAsp-(2S, 3S)-EP-COOEt
T6 sequence: DEVD

[7] = tested on: T7, Cbz-Leu-Glu-Thr-AAsp-(2R, 3R)-EP-COOEt
T7 sequence: LETD

[8] = tested on: T8, Cbz-Leu-Glu-Thr-AAsp-(2S, 3S)-EP-COOEt
T8 sequence: LETD

[9] = tested on: T9, PhPr-Val-Ala-AAsp-trans-EP-CH2CH2Ph
T9 sequence: VAD

[10] = tested on: T10, PhPr-Val-Ala-AAsp-trans-EP-COOCH2Ph
T10 sequence: VAD

Ac-AHph-trans-EP-COOEt = tested on: T11, Ac-AHph-trans-EP-COOEt
T11 sequence: X

[11] = tested on: T12, Ac-Leu-AHph-trans-EP-COOEt
T12 sequence: LX

[12] = tested on: T13, Ac-Leu-ALeu-trans-EP-COOEt
T13 sequence: LL

Cbz-AHph-trans-EP-COOEt = tested on: T14, Cbz-AHph-trans-EP-COOEt
T14 sequence: X

Cbz-ALeu-trans-EP-COOEt = tested on: T15, Cbz-ALeu-trans-EP-COOEt
T15 sequence: L

[13] = tested on: T16, Cbz-Leu-AAbu-trans-EP-COOEt
T16 sequence: LX

[14] = tested on: T17, Cbz-Leu-AAbu-trans-EP-COOH
T17 sequence: LX

[15] = tested on: T18, Cbz-Leu-AHph-(2R, 3R)-EP-COOEt
T18 sequence: LX

[16] = tested on: T19, Cbz-Leu-AHph-(2S, 3S)-EP-COOEt
T19 sequence: LX

[17] = tested on: T20, Cbz-Leu-AHph-(2S, 3S)-EP-COOH
T20 sequence: LX

[18] = tested on: T21, Cbz-Leu-AHph-cis-EP-COOEt
T21 sequence: LX

[19] = tested on: T22, Cbz-Leu-ALeu-(2R, 3R)-EP-COOEt
T22 sequence: LL

[20] = tested on: T23, Cbz-Leu-ALeu-(2S, 3S)-EP-COOEt
T23 sequence: LL

[21] = tested on: T24, Cbz-Leu-ALeu-cis-EP-COOEt
T24 sequence: LL

[22] = tested on: T25, Cbz-Leu-ALeu-trans-EP-COOEt
T25 sequence: LL

[23] = tested on: T26, Cbz-Leu-Leu-ALeu-(2R, 3R)-EP-COOEt
T26 sequence: LLL

[24] = tested on: T27, Cbz-Leu-Leu-ALeu-(2S, 3S)-EP-COOEt
T27 sequence: LLL

[25] = tested on: T28, Cbz-Leu-Leu-ALeu-(2S, 3S)-EP-COOH
T28 sequence: LLL

[26] = tested on: T29, Cbz-Leu-Leu-ALeu-trans-EP-COOEt
T29 sequence: LLL

[27] = tested on: T30, Boc-Nle-AHph-trans-EP-COOEt
T30 sequence: XX

[28] = tested on: T31, Boc-Nva-AHph-trans-EP-COOEt
T31 sequence: XX

[29] = tested on: T32, Nle-AHph-trans-EP-COOEt.TFA
T32 sequence: XX

[30] = tested on: T33, Nva-AHph-trans-EP-CH2CH2Ph.TFA
T33 sequence: XX

[31] = tested on: T34, Nva-AHph-trans-EP-COOEt.TFA
T34 sequence: XX

[32] = tested on: T35, Boc-Abu-AHph-trans-EP-CH2CH2Ph
T35 sequence: XX

[33] = tested on: T36, Boc-Nle-AHph-trans-EP-CH2CH2Ph
T36 sequence: XX

[34] = tested on: T37, Boc-Np2-ALeu-trans-EP-COOEt
T37 sequence: XL

Cbz-APhe-trans-EP-COOEt = tested on: T38, Cbz-APhe-trans-EP-COOEt
T38 sequence: F

[35] = tested on: T39, Cbz-Ala-Ala-AAsn-trans-EP-COOCH2Ph
T39 sequence: AAN

[36] = tested on: T40, Cbz-Ala-Ala-NHN(CH2COOEt)-trans-EP-COOEt
T40 sequence: AAD

[37] = tested on: T41, Cbz-Ile-Glu-Thr-AAsp-(2S, 3S)-EP-COOEt
T41 sequence: IETD

[38] = tested on: T42, Cbz-Leu-Phe-AGln-(2R, 3R)-EP-COOEt
T42 sequence: LFQ

[39] = tested on: T43, Cbz-Leu-Phe-AGln-(2S, 3S)-EP-COOEt
T43 sequence: LFQ

[40] = tested on: T44, Cbz-Leu-Phe-AGln-trans-EP-COOEt
T44 sequence: LFQ

[41] = tested on: T45, Cbz-Phe-ALeu-trans-EP-CH2CH2Ph
T45 sequence: FL

[42] = tested on: T46, Cbz-Phe-ALeu-trans-EP-COOEt
T46 sequence: FL

[43] = tested on: T47, Cbz-Phe-APhe-trans-EP-CH2CH2Ph
T47 sequence: FF

[44] = tested on: T48, PhPr-Val-Ala-AAsp-(2R, 3R)-EP-COOCH2Ph
T48 sequence: VAD

[45] = tested on: T49, PhPr-Val-Ala-AAsp-(2S, 3S)-EP-COOCH2Ph
T49 sequence: VAD

[46] = tested on: T50, Suc-Np2-ALeu-trans-EP-COOEt
T50 sequence: XL

chymotrypsin
kobs/[I] [1]: NI
kobs/[I] [2]: NI
kobs/[I] [3]: NI
kobs/[I] [4]: NI
kobs/[I] [5]: NI
kobs/[I] [6]: NI
kobs/[I] [7]: NI
kobs/[I] [8]: NI
kobs/[I] [9]: NI
kobs/[I] [10]: NI

calpain
kobs/[I] (Ac-AHph-trans-EP-COOEt): 1.29 M⁻¹ s⁻¹
kobs/[I] [11]: 0.84 M⁻¹ s⁻¹
kobs/[I] [12]: 1.48 M⁻¹ s⁻¹
kobs/[I] (Cbz-AHph-trans-EP-COOEt): 2.44 M⁻¹ s⁻¹
kobs/[I] (Cbz-ALeu-trans-EP-COOEt): 1.75 M⁻¹ s⁻¹
kobs/[I] [13]: 1.98 M⁻¹ s⁻¹
kobs/[I] [14]: 0.57 M⁻¹ s⁻¹
kobs/[I] [15]: 2.12 M⁻¹ s⁻¹
kobs/[I] [16]: 2.28 M⁻¹ s⁻¹
kobs/[I] [17]: 2.12 M⁻¹ s⁻¹
kobs/[I] [18]: 1.09 M⁻¹ s⁻¹
kobs/[I] [19]: 1.45 M⁻¹ s⁻¹
kobs/[I] [20]: 8.58 M⁻¹ s⁻¹
kobs/[I] [21]: 1.88 M⁻¹ s⁻¹
kobs/[I] [22]: 3.09 M⁻¹ s⁻¹
kobs/[I] [23]: NI
kobs/[I] [24]: 2.48 M⁻¹ s⁻¹
kobs/[I] [25]: 0.82 M⁻¹ s⁻¹
kobs/[I] [26]: 2.65 M⁻¹ s⁻¹

dipeptidyl peptidase I
kobs/[I] [27]: 0.7 M⁻¹ s⁻¹
kobs/[I] [28]: 0.5 M⁻¹ s⁻¹
kobs/[I] [29]: 8.2 M⁻¹ s⁻¹
kobs/[I] [30]: 0.1 M⁻¹ s⁻¹
kobs/[I] [31]: 3.2 M⁻¹ s⁻¹

cathepsin B
kobs/[I] (Ac-AHph-trans-EP-COOEt): 40.6 M⁻¹ s⁻¹
kobs/[I] [11]: 0.59 M⁻¹ s⁻¹
kobs/[I] [12]: 8 M⁻¹ s⁻¹
kobs/[I] [32]: NI
kobs/[I] [33]: NI
kobs/[I] [27]: 1.3 M⁻¹ s⁻¹
kobs/[I] [34]: 0.39 M⁻¹ s⁻¹
kobs/[I] [28]: 2.7 M⁻¹ s⁻¹
kobs/[I] (Cbz-AHph-trans-EP-COOEt): 8.91 M⁻¹ s⁻¹
kobs/[I] (Cbz-ALeu-trans-EP-COOEt): 4.43 M⁻¹ s⁻¹
kobs/[I] (Cbz-APhe-trans-EP-COOEt): 1.8 M⁻¹ s⁻¹
kobs/[I] [1]: NI
kobs/[I] [2]: 6 M⁻¹ s⁻¹
kobs/[I] [3]: NI
kobs/[I] [35]: 1.09 M⁻¹ s⁻¹
kobs/[I] [4]: 1.27 M⁻¹ s⁻¹
kobs/[I] [36]: 2.53 M⁻¹ s⁻¹
kobs/[I] [5]: NI
kobs/[I] [6]: NI
kobs/[I] [37]: NI
kobs/[I] [14]: NI
kobs/[I] [15]: NI
kobs/[I] [16]: 0.67 M⁻¹ s⁻¹
kobs/[I] [18]: NI
kobs/[I] [19]: NI
kobs/[I] [20]: 1.8 M⁻¹ s⁻¹
kobs/[I] [21]: 6.27 M⁻¹ s⁻¹
kobs/[I] [22]: 23.3 M⁻¹ s⁻¹
kobs/[I] [7]: NI
kobs/[I] [8]: NI
kobs/[I] [23]: NI
kobs/[I] [24]: 0.98 M⁻¹ s⁻¹
kobs/[I] [25]: 7.02 M⁻¹ s⁻¹
kobs/[I] [26]: NI
kobs/[I] [38]: NI
kobs/[I] [39]: 4.73 M⁻¹ s⁻¹
kobs/[I] [40]: 1.3 M⁻¹ s⁻¹
kobs/[I] [41]: NI
kobs/[I] [42]: 3.61 M⁻¹ s⁻¹
kobs/[I] [43]: NI
kobs/[I] [44]: NI
kobs/[I] [45]: 0.81 M⁻¹ s⁻¹
kobs/[I] [9]: NI
kobs/[I] [10]: < 10 M⁻¹ s⁻¹
kobs/[I] [46]: 0.8 M⁻¹ s⁻¹

From patent US20040048327
